Measurements published in the Immune Epitope Database (IEDB).

Columns and labels:
HLA-A*01:01 = test: IEDB peptide-MHC binding, purified MHC/direct/fluorescence; filed as Kd, often an IC50 or EC50 that approximates it; ≥ and ≤ were set here for values at or beyond the usual limits of such assays
HLA-A*02:01 = test: as above
HLA-A*02:50 = test: as above; details: source organism: Francisella tularensis subsp. tularensis FSC033
HLA-A*29:02 = test: as above; details: source organism: Francisella tularensis subsp. tularensis FSC033
HLA-A*30:01 = test: as above; details: source organism: Francisella tularensis subsp. tularensis FSC033
HLA-A*69:01 = test: as above
HLA-B*07:02 = test: as above
HLA-B*15:01 = test: as above
HLA-B*18:01 = test: as above; details: source organism: Francisella tularensis subsp. tularensis FSC033
HLA-B*40:01 = test: as above
HLA-B*44:02 = test: as above; details: source organism: Francisella tularensis subsp. tularensis FSC033
HLA-B*51:01 = test: as above; details: source organism: Francisella tularensis subsp. tularensis FSC033
HLA-B*57:01 = test: as above; details: source organism: Francisella tularensis subsp. tularensis FSC033
HLA-B*58:01 = test: as above
HLA-A*03:01 = test: as above; details: source organism: Bacillus licheniformis
HLA-A*11:01 = test: as above; details: source organism: Bacillus licheniformis
HLA-A*26:01 = test: as above; details: source organism: Bacillus licheniformis
HLA-A*31:01 = test: as above; details: source organism: Bacillus licheniformis
HLA-B*08:01 = test: as above; details: source organism: Bacillus licheniformis
HLA-B*27:05 = test: as above; details: source organism: Bacillus licheniformis
HLA-B*15:02 = test: IEDB peptide-MHC binding, purified MHC/competitive/fluorescence; filed as Kd, often an IC50 or EC50 that approximates it; ≥ and ≤ were set here for values at or beyond the usual limits of such assays; details: source organism: Bacillus licheniformis
[1] = source organism: Francisella tularensis subsp. tularensis FSC033
[2] = source organism: Francisella tularensis subsp. holarctica OSU18
[3] = source organism: Bacillus licheniformis

## ETLDVFGPI
HLA-A*01:01; [1]
  Kd: ≥ 20 µM
HLA-A*02:01; [2]
  Kd: ≥ 20 µM
HLA-A*02:50
  Kd: ≥ 20 µM
HLA-A*29:02
  Kd: ≥ 20 µM
HLA-A*30:01
  Kd: ≥ 20 µM
HLA-A*69:01; [2]
  Kd: 0.0004 µM
HLA-B*07:02; [1]
  Kd: ≥ 20 µM
HLA-B*15:01; [1]
  Kd: ≥ 20 µM
HLA-B*18:01
  Kd: ≥ 20 µM
HLA-B*40:01; [1]
  Kd: ≥ 20 µM
HLA-B*44:02
  Kd: ≥ 20 µM
HLA-B*51:01
  Kd: ≥ 20 µM
HLA-B*57:01
  Kd: ≥ 20 µM
HLA-B*58:01; [1]
  Kd: ≥ 20 µM

## VQIPEKKCF
HLA-A*01:01; [3]
  Kd: ≥ 20 µM
HLA-A*02:01; [3]
  Kd: ≥ 20 µM
HLA-A*03:01
  Kd: ≥ 20 µM
HLA-A*11:01
  Kd: ≥ 20 µM
HLA-A*26:01
  Kd: ≥ 20 µM
HLA-A*31:01
  Kd: ≥ 20 µM
HLA-A*69:01; [3]
  Kd: ≥ 20 µM
HLA-B*07:02; [3]
  Kd: ≥ 20 µM
HLA-B*08:01
  Kd: ≥ 20 µM
HLA-B*15:01; [3]
  Kd: 0.453 µM
HLA-B*27:05
  Kd: ≥ 20 µM
HLA-B*40:01; [3]
  Kd: ≥ 20 µM
HLA-B*58:01; [3]
  Kd: ≥ 20 µM
HLA-B*15:02
  Kd: ≥ 20 µM
